From CN109734803A (ZONHON BIOPHARMA INST INC, dated 2019) come the findings set out here.

Experiment [1] concerns the target T1, 重组人MYO(大肠杆菌重组表达，本公司制备) (human, UniProt P02144 2-154).
T1 construct: The background describes myoglobin as one chain of 153 residues with a haem group; also called 重组MYO; 人肌红蛋白
T1 sequence (looked up): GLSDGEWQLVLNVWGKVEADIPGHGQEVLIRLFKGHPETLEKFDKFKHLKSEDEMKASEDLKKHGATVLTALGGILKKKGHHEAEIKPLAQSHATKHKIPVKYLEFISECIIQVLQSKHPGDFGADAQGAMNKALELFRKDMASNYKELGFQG
The experiment in a line: Western blot, recombinant MYO on nitrocellulose, HRP-labelled M08 at 1:1000.

The target in experiment [2] is T1, 重组人MYO(大肠杆菌重组表达，本公司制备). As to the kind of experiment: indirect ELISA, recombinant human MYO coated at 1 μg/mL, hybridoma supernatant, HRP goat anti-mouse IgG.
The target of experiment [3] is T1, 重组人MYO(大肠杆菌重组表达，本公司制备). The experiment in a line: Western blot, recombinant MYO on nitrocellulose, HRP-labelled M26 at 1:1000.

B1: 单链抗体M08 (scFv)
scFv: QVQLQQSGAELAKPGASVKMSCKASGYTFTSYWMHWVKQRPGQGLEWIGYIKPNTDYTEYNQKFKDKATLTADKSSSTAYMQLSSLTSEDSAVYYCTRIRGYALDYWGQGTSVTVSSGGGGSGGGGSGGGGSDIVMTQSPSSLTVTAGEKVTMICKSSQSLLNSGNQKNYLTWYQQKPGQPPKLLIYWASTRESGVPDRFTGSGSGTDFTLTISSVQAEDLAVYYCQNDYNFPLTFGAGTKLELK
notes: VH and VL of M08 joined by a (GGGGS)3 linker, expressed in E. coli and purified on HisTrap; HRP-labelled in the Western blot; coupled to time-resolved fluorescent microspheres in the test card; also called M08-scFv; M08-HRP; not shown: Histidine tag introduced downstream of the gene
On to B1, for which the binding result in the experiment with 重组人MYO(大肠杆菌重组表达，本公司制备) [1] is recorded as “binds”.

B2: 杂交瘤细胞株M08的抗人MYO抗体 (antibody, V domains shown)
VH: QVQLQQSGAELAKPGASVKMSCKASGYTFTSYWMHWVKQRPGQGLEWIGYIKPNTDYTEYNQKFKDKATLTADKSSSTAYMQLSSLTSEDSAVYYCTRIRGYALDYWGQGTSVTVSS
VL: DIVMTQSPSSLTVTAGEKVTMICKSSQSLLNSGNQKNYLTWYQQKPGQPPKLLIYWASTRESGVPDRFTGSGSGTDFTLTISSVQAEDLAVYYCQNDYNFPLTFGAGTKLELK
notes: Mouse hybridoma culture supernatant, detected with HRP goat anti-mouse IgG; also called 抗人肌红蛋白抗体(M08)
Turning to B2, the binding result in the experiment with 重组人MYO(大肠杆菌重组表达，本公司制备) [2] is reported as “binds”.

B3: 单链抗体M26 (scFv)
scFv: QVQLQQSGDDLVKPGASVKLSCKASGYTFTSYWINWIKQRPGQGLEWIGRIAPEGDSTYYNEMFKGKATLTVDTSSSTAYIQLSSLSSEDSAVYFCAREVRNAMDYWGQGTSVTVSSGGGGSGGGGSGGGGSDIQMNQSPSSLSASLGDTITITCHASQNIHVWLSWYLQKPGNITKLLIYEASNLHTGVPSRFSGSGSGTGFTLTISSLQPEDIATYYCQQGQRYPLTFGGGTKLEIK
notes: VH and VL of M26 joined by a (GGGGS)3 linker, expressed in E. coli and purified on HisTrap; HRP-labelled in the Western blot; coated on the T line of the nitrocellulose membrane in the test card; also called M26-scFv; M26-HRP; not shown: Histidine tag introduced downstream of the gene
For B3, in the experiment with 重组人MYO(大肠杆菌重组表达，本公司制备) [3], the binding result was “binds”.

B4: 杂交瘤细胞株M26的抗人MYO抗体 (antibody, V domains shown)
VH: QVQLQQSGDDLVKPGASVKLSCKASGYTFTSYWINWIKQRPGQGLEWIGRIAPEGDSTYYNEMFKGKATLTVDTSSSTAYIQLSSLSSEDSAVYFCAREVRNAMDYWGQGTSVTVSS
VL: DIQMNQSPSSLSASLGDTITITCHASQNIHVWLSWYLQKPGNITKLLIYEASNLHTGVPSRFSGSGSGTGFTLTISSLQPEDIATYYCQQGQRYPLTFGGGTKLEIK
notes: Mouse hybridoma culture supernatant, detected with HRP goat anti-mouse IgG; also called 抗人肌红蛋白抗体(M26)
Regarding B4, the binding result with 重组人MYO(大肠杆菌重组表达，本公司制备) [2] was “binds”.
